This is an account of results in US20110212105A1.

This assay addresses A2MR receptor on Vero cells (monkey (Vero cell line)). The assay is described as follows: cell-based or functional assay.

Sequence of RAPR13 (recombinant human LRPAP1 / receptor-associated protein with an N-terminal tag of 6 histidines and a thrombin cleavage site) (P30533 other isoform, or with tags, fused parts or gaps limits assumed): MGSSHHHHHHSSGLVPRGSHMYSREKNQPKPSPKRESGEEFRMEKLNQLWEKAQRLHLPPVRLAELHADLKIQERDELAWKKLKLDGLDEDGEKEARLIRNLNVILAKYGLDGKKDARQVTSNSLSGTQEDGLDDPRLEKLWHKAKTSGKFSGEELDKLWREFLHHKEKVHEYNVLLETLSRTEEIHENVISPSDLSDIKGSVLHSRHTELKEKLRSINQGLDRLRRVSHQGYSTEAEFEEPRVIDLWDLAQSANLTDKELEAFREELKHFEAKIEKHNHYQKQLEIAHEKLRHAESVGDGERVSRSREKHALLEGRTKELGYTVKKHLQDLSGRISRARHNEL

On to “RAPR13 (recombinant human LRPAP1 / receptor-associated protein with an N-terminal tag of 6 histidines and a thrombin cleavage site) (from UniProt P30533 35-357) (ligand)”, for which the inhibition of the infection of Vero cells by DV1 (West Pac 74), lytic plaque assay, RAPR13 at 100 µg/mL was determined as 65%; the inhibition of the infection of Vero cells by DV2 (S16803), lytic plaque assay, RAPR13 at 100 µg/mL was found to be 76%; the inhibition of the infection of Vero cells by DV3 (CH53489), lytic plaque assay, RAPR13 at 100 µg/mL was 60%; the inhibition of the infection of Vero cells by DV4 (TVP360), lytic plaque assay, RAPR13 at 100 µg/mL was found to be 75%.
